From the supplement of paper PMC9112550, “Optimization of the antimicrobial peptide Bac7 by deep mutational scanning” (BMC Biology, 2022)

Test system: Escherichia coli TOP10
Assay: shrunken log2 fold change of peptide-encoding DNA abundance (4.5 h post-induction vs induction); higher = less antimicrobial activity (less host growth inhibition)
Settings: time post-induction: 4.5 h; library: site-saturation at positions 5, 18, 19, 20
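Note: peptides expressed intracellularly from a pBAD plasmid library in pooled LB shake-flask culture, induced with 0.3% L-arabinose, DNA abundance read by NGS, three biological replicates, DESeq2 with apeglm shrinkage.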

Sequence | shrunken log2 fold change
RRIRPRPPRLPRPRPRPSRAPRP | 0.11
RRIRPRPPRLPRPRPRPKQYPRP | -0.29
RRIRCRPPRLPRPRPRPYCQPRP | -0.219
RRIRKRPPRLPRPRPRPIQGPRP | -0.0243
RRIRRRPPRLPRPRPRPARFPRP | 0.709
RRIRRRPPRLPRPRPRPASYPRP | -0.111
RRIRWRPPRLPRPRPRPNRRPRP | 0.191
RRIRPRPPRLPRPRPRPAKNPRP | 0.235
RRIRGRPPRLPRPRPRPTLEPRP | 1.22
RRIRARPPRLPRPRPRPPELPRP | 0.947
RRIRDRPPRLPRPRPRPCPDPRP | -0.312
RRIRLRPPRLPRPRPRPEWGPRP | 0.504
RRIRSRPPRLPRPRPRPFEFPRP | -0.42
RRIRHRPPRLPRPRPRPCIHPRP | -0.345
RRIRMRPPRLPRPRPRPMPIPRP | 0.0625
RRIRNRPPRLPRPRPRPMGSPRP | -0.01
RRIRCRPPRLPRPRPRPNQFPRP | -0.23
RRIRERPPRLPRPRPRPEVYPRP | -0.0514
RRIRCRPPRLPRPRPRPMQWPRP | 0.226
RRIRMRPPRLPRPRPRPRRGPRP | 1.09
RRIRERPPRLPRPRPRPQRLPRP | 0.202
RRIRRRPPRLPRPRPRPTKCPRP | 0.114
RRIRPRPPRLPRPRPRPITGPRP | -0.189
RRIRVRPPRLPRPRPRPQERPRP | -0.119
RRIRSRPPRLPRPRPRPNKTPRP | -0.286

Sequence | shrunken log2 fold change
RRIRLRPPRLPRPRPRPNQQPRP | 0.0291
RRIRRRPPRLPRPRPRPKVEPRP | -0.0016
RRIRGRPPRLPRPRPRPIYNPRP | -0.185
RRIRTRPPRLPRPRPRPLWIPRP | -0.331
RRIRNRPPRLPRPRPRPQMRPRP | 0.308
RRIRVRPPRLPRPRPRPDVHPRP | -0.159
RRIRRRPPRLPRPRPRPMLHPRP | 0.385
RRIRLRPPRLPRPRPRPQLNPRP | -0.214
RRIRRRPPRLPRPRPRPLSDPRP | 0.144
RRIRNRPPRLPRPRPRPQTAPRP | -0.0947
RRIRVRPPRLPRPRPRPWYTPRP | -0.507
RRIRGRPPRLPRPRPRPQVDPRP | 0.266
RRIRGRPPRLPRPRPRPSIDPRP | 1.84
RRIRIRPPRLPRPRPRPDPDPRP | -0.131
RRIRSRPPRLPRPRPRPNPGPRP | -0.17
RRIRERPPRLPRPRPRPFNPPRP | -0.442
RRIRTRPPRLPRPRPRPLREPRP | 0.318
RRIRTRPPRLPRPRPRPAFQPRP | 0.125
RRIRIRPPRLPRPRPRPPTFPRP | -0.166
RRIRARPPRLPRPRPRPVKQPRP | -0.0614
RRIRKRPPRLPRPRPRPVMKPRP | 0.535
RRIRDRPPRLPRPRPRPWVHPRP | -0.0818
RRIRARPPRLPRPRPRPYTVPRP | -0.306
RRIRARPPRLPRPRPRPYIPPRP | -0.805
RRIRWRPPRLPRPRPRPWMLPRP | -0.0694

Sequence | shrunken log2 fold change
RRIRFRPPRLPRPRPRPCHNPRP | -0.0447
RRIRDRPPRLPRPRPRPFIMPRP | -0.147
RRIRRRPPRLPRPRPRPGIRPRP | 0.108
RRIRRRPPRLPRPRPRPNDCPRP | 0.264
RRIRTRPPRLPRPRPRPKQYPRP | -0.379
RRIRKRPPRLPRPRPRPRRVPRP | 0.569
RRIRRRPPRLPRPRPRPYFCPRP | -0.285
RRIRVRPPRLPRPRPRPEDYPRP | 0.0316
RRIRGRPPRLPRPRPRPDYIPRP | -0.144
RRIRRRPPRLPRPRPRPLFIPRP | -0.27
RRIRTRPPRLPRPRPRPSANPRP | -0.0622
RRIRWRPPRLPRPRPRPRIKPRP | 0.0187
RRIRSRPPRLPRPRPRPKNWPRP | 0.176
RRIRVRPPRLPRPRPRPFCLPRP | -0.357
RRIRVRPPRLPRPRPRPSMIPRP | -0.375
RRIRERPPRLPRPRPRPTLKPRP | -0.197
RRIRSRPPRLPRPRPRPEADPRP | 0.688
RRIRYRPPRLPRPRPRPVAIPRP | -0.702
RRIRRRPPRLPRPRPRPTKIPRP | 0.0521
RRIRRRPPRLPRPRPRPNYWPRP | -0.19
RRIRQRPPRLPRPRPRPKNGPRP | -0.159
RRIRPRPPRLPRPRPRPLRHPRP | 0.21
RRIRKRPPRLPRPRPRPWVEPRP | 0.104
RRIRIRPPRLPRPRPRPAHQPRP | -0.0564
RRIRPRPPRLPRPRPRPCNDPRP | -0.456

Sequence | shrunken log2 fold change
RRIRSRPPRLPRPRPRPNHLPRP | -0.814
RRIRCRPPRLPRPRPRPHTFPRP | -0.467
RRIRDRPPRLPRPRPRPDLAPRP | 0.814
RRIRIRPPRLPRPRPRPCMYPRP | -0.573
RRIRFRPPRLPRPRPRPRHPPRP | 0.0568
RRIRSRPPRLPRPRPRPYKIPRP | -0.846
RRIRWRPPRLPRPRPRPLFFPRP | -0.00386
RRIRIRPPRLPRPRPRPIECPRP | -0.314
RRIRWRPPRLPRPRPRPCGFPRP | 0.395
RRIRARPPRLPRPRPRPAVCPRP | 0.442
RRIRDRPPRLPRPRPRPAPMPRP | 0.445
RRIRGRPPRLPRPRPRPEEKPRP | 1.66
RRIRARPPRLPRPRPRPSHTPRP | 0.162
RRIRQRPPRLPRPRPRPHWGPRP | 0.0433
RRIRDRPPRLPRPRPRPFAVPRP | -0.0136
RRIRIRPPRLPRPRPRPQCDPRP | -0.205
RRIRSRPPRLPRPRPRPLIYPRP | -0.546
RRIRSRPPRLPRPRPRPYLSPRP | -0.062
RRIRHRPPRLPRPRPRPETWPRP | -0.238
RRIRIRPPRLPRPRPRPQLMPRP | -0.442
RRIRCRPPRLPRPRPRPESNPRP | 0.00481
RRIRMRPPRLPRPRPRPFVTPRP | -0.269
RRIRGRPPRLPRPRPRPIWRPRP | 0.744
RRIRCRPPRLPRPRPRPQKIPRP | -0.252
RRIRSRPPRLPRPRPRPCCQPRP | 0.0545

Sequence | shrunken log2 fold change
RRIRDRPPRLPRPRPRPSMSPRP | -0.33
RRIRGRPPRLPRPRPRPAMFPRP | 0.455
RRIRKRPPRLPRPRPRPWWAPRP | -0.287
RRIRKRPPRLPRPRPRPGHVPRP | -0.165
RRIRCRPPRLPRPRPRPGEHPRP | -0.0986
RRIRSRPPRLPRPRPRPIKLPRP | 0.0994
RRIRYRPPRLPRPRPRPDDAPRP | -0.199
RRIRERPPRLPRPRPRPWDTPRP | -0.623
RRIRFRPPRLPRPRPRPEREPRP | 0.292
RRIRSRPPRLPRPRPRPHGWPRP | -0.107
RRIRNRPPRLPRPRPRPCFGPRP | 0.0347
RRIRYRPPRLPRPRPRPMWMPRP | -0.00149
RRIRYRPPRLPRPRPRPCMHPRP | -0.351
RRIRRRPPRLPRPRPRPRVEPRP | 0.662
RRIRDRPPRLPRPRPRPQMAPRP | 0.116
RRIRWRPPRLPRPRPRPYQIPRP | 0.0326
RRIRVRPPRLPRPRPRPLNRPRP | -0.328
RRIRKRPPRLPRPRPRPAEHPRP | 0.12
RRIRLRPPRLPRPRPRPGEVPRP | 0.117
RRIRMRPPRLPRPRPRPEDLPRP | 4.64
RRIRFRPPRLPRPRPRPVWIPRP | -0.0471
RRIRGRPPRLPRPRPRPRTRPRP | 1.01
RRIRRRPPRLPRPRPRPYVWPRP | -0.216
RRIRERPPRLPRPRPRPYDLPRP | -0.169
RRIRDRPPRLPRPRPRPYYDPRP | -0.621

Sequence | shrunken log2 fold change
RRIRARPPRLPRPRPRPFFIPRP | -0.211
RRIRARPPRLPRPRPRPEEMPRP | 1.73
RRIRWRPPRLPRPRPRPEECPRP | 0.158
RRIRVRPPRLPRPRPRPHHIPRP | -0.386
RRIRWRPPRLPRPRPRPAYLPRP | -0.108
RRIRDRPPRLPRPRPRPTVDPRP | 0.195
RRIRDRPPRLPRPRPRPDWSPRP | 0.147
RRIRKRPPRLPRPRPRPMQSPRP | 0.995
RRIRARPPRLPRPRPRPLWPPRP | 0.646
RRIRMRPPRLPRPRPRPIIQPRP | -0.402
RRIRHRPPRLPRPRPRPDCTPRP | 0.0402
RRIRTRPPRLPRPRPRPLKIPRP | 0.0669
RRIRDRPPRLPRPRPRPNKEPRP | 0.0313
RRIRTRPPRLPRPRPRPEFGPRP | 0.0617
RRIRCRPPRLPRPRPRPCQAPRP | -0.244
RRIRDRPPRLPRPRPRPAFLPRP | 0.000425
RRIRERPPRLPRPRPRPGIHPRP | -0.502
RRIRGRPPRLPRPRPRPNFEPRP | 1.87
RRIRWRPPRLPRPRPRPQQVPRP | -0.00531
RRIRYRPPRLPRPRPRPTCNPRP | -0.351
RRIRSRPPRLPRPRPRPDPLPRP | 0.0174
RRIRGRPPRLPRPRPRPMRYPRP | 0.347
RRIRKRPPRLPRPRPRPGCNPRP | 0.754
RRIRGRPPRLPRPRPRPGLRPRP | 0.875
RRIRQRPPRLPRPRPRPHYIPRP | -0.298
